Assay results: patent publication US20260250318A1, “COMPOSITIONS AND METHODS FOR CROSSING THE BLOOD BRAIN BARRIER” (VOYAGER THERAPEUTICS, INC., priority 2022, published 2026)
Substitutions are numbered along the chain they refer to.

How the values were obtained:
ALPL on HeLa cells = target: T1, ALPL on HeLa cells (Homo sapiens, UniProt P05186); experiment: Transduction of HeLa cells after blocking with an anti-ALPL antibody; format: cell-based; details: for Transduction in Hela cells as measured by luciferase assay (RLU): 1E4 VG/cell
T1 construct: knockdown endogenous levels of ALPL in HeLa cells; endogenous in cells; host or cells: HeLa
T1 sequence (P05186 18-501): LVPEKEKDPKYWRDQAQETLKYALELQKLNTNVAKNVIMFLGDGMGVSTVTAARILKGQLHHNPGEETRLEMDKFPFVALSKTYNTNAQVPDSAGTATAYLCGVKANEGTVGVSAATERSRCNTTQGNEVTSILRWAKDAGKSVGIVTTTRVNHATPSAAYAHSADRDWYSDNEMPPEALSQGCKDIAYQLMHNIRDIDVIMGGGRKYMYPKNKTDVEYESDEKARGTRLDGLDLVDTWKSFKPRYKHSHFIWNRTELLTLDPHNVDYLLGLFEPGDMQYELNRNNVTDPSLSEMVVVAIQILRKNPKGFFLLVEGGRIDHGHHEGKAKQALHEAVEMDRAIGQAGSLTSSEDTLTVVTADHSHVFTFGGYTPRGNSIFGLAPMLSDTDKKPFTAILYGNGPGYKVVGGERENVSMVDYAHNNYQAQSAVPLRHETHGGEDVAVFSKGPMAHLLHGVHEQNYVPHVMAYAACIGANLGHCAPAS
Experimental: Following incubation, the cells were transduced with 1E4 VG/cell of AAV particles comprising the TTM-002 capsid variant or an AAV9 control expressing a GFP-luciferase payload. After a 4 hour incubation period the AAV and media were removed and replaced with fresh media and luciferase activity was measured (RLU) 24 hours post transduction.

[1] = test system: brains and tissues (liver quadriceps, and heart); experiment: NGS fold enrichment of capsid variants in marmosets; format: in vivo, marmosets (Callithrix jacchus); details: 2E13 vg/kg IV, 28 days
Excerpt: To investigate tropism in marmoset monkeys, AAV particles comprising the TTM-001 capsid variant, the TTM-002 capsid variant, an AAV9 capsid variant comprising SEQ ID NO: 966, or an AAV9 control, were intravenously injected into NHPs (n=2, >10 months of age) at a dose of 2E13 vg/kg (8.75E12 vg/mL). After 28-days in life, the brains and tissues (liver quadriceps, and heart) of the NHPs were collected and RNA was extracted. Following RNA recovery and RT-PCR amplification, a systematic NGS enrichment analysis was performed to calculate the fold enrichment ratio relative to the AAV9 wild-type control.

[2] = target: T2, isoform 2 (alkaline phosphatase, placental (ALPP)) (Homo sapiens, UniProt P05187); experiment: Transduction assay in HEK 293T cells expressing isoform 2; format: cell-based; details: for Luciferase Activity (RLU): Table 30, Isoform 2 transfected cells; for increase in transduction in cells expressing isoform 2: luciferase activity (RLU)
T2 construct: expressed in transfected cells; host or cells: HEK 293T
Excerpt: Three isoforms of ALPL exist, isoform 1 (Alkaline phosphatase, placental-like 2 (ALPPL2), NM_031313, which is incorporated by reference herein), isoform 2 (alkaline phosphatase, placental (ALPP), NM_001632, which is incorporated by reference herein), and isoform 3 (alkaline phosphatase, intestinal (ALPLI), NM_001631, which is incorporated by reference herein), that can also be expressed on cell surfaces via a GPI-anchor. Isoform 1 is 56.25% identical and 72.54% similar (gaps: 4.17%) to ALPL, isoform 2 is 54.96% identical and 71.37% similar (gaps: 2.29%) to ALPL, and isoform 3 is 55.98% identical and 72.11% similar (gaps: 3.04%) to ALPL. The transduction assay described above was repeated with the three isoforms. HEK 293T cells were transfected via calcium phosphate transfection with a plasmid expressing ALPL, isoform 1 of ALPL, isoform 2 of ALPL, isoform 3 of ALPL, an AAVR positive control, or a pCMV6 negative control. […] At 24-hours post-transduction, luciferase activity (RLU) was measured to quantify AAV cellular transduction.

brain [3] = experiment: Second cross-species screen, passage 2 in C57Bl/6 mice after first passage in NHPs; format: in vivo; details: P2 in C57Bl/6 after first passage in NHPs
Experimental: A second cross-species evolution screen was performed using an AAV capsid variant library with a modification in loop IV introduced as described above and passaging it once through NHPs (passage 1) and then subsequently injected it into two different strains of mice (passage 2), C57Bl/6 and BALB/c. The fold-enrichment for each variant in the brain of each mouse species was calculated by systematic NGS enrichment analysis following RNA recovery and RT-PCR amplification. The fold enrichment values in the second passage in mice were compared to those fold enrichment values from the second pass that was performed in NHPs as described above. […] Further, 10 of these 12 variants comprised the SPH motif and a positive residue in one of the next three subsequent residues (Table 10).

brain [4] = experiment: NGS fold enrichment of synthetic library (passage 3) in BALB/c mice, first cross-species screen; format: in vivo; details: synthetic library passage 3, intravenous, RNA NGS, brain of BALB/c mice, relative to wild-type AAV9
Summary of the method: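 Fold enrichment versus wild-type AAV9 was derived by NGS of RT-PCR-amplified RNA from nervous tissue, collected e.g. 28 days after IV dosing […]. The library (passage 3) was given to two NHPs aged 2-4 years and to 6-8-week BALB/c and C57Bl/6 mice (n=3 each).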

[5] = test system: HEK 293T cells transfected with pCMV6 negative control; experiment: Binding and internalization assay in HEK 293T cells transfected with pCMV6 negative control (viral genomes); format: cell-based; details: pCMV6 transfected cells (negative control, reference)
Experimental: Binding and internalization of AAV capsid variants comprising the TTM-001 capsid variant, the TTM-002 capsid variant, or the AAV9 control capsid was also investigated in cells engineered to express ALPL. HEK 293T cells were transfected via calcium phosphate transfection with a plasmid expressing ALPL, an AAVR positive control, or a pCMV6 negative control. At 24 hours post-transfection, the HEK 293T cells expressing the ALPL receptor were incubated with an AAV particle comprising the TTM-001 capsid variant, the TTM-002 capsid variant, or an AAV9 control capsid protein, expressing a GFP payload. At 2 or 3-hours post-incubation, cells were washed to remove unbound AAV particles and DNA was extracted to quantify viral genomes.

[6] = IgG isotype control 3.125 μg/mL

T2 sequence (P05187 23-506): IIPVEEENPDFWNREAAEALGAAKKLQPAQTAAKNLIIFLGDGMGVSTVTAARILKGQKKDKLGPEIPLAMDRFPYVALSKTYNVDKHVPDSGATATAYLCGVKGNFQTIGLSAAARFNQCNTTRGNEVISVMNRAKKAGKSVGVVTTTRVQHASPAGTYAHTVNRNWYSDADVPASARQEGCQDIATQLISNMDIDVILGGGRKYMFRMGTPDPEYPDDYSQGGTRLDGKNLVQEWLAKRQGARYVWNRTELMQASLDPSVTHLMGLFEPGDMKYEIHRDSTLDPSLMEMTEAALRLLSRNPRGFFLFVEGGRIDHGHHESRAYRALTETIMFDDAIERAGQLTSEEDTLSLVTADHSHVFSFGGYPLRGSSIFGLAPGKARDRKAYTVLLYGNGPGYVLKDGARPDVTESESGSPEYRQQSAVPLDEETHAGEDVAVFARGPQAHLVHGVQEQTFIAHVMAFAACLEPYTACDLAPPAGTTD

Molecule: AAV9: wild-type AAV9 control capsid [reference compound]
- Transduction in Hela cells as measured by luciferase assay (RLU) (ALPL on HeLa cells; Anti-ALPL antibody 0 μg/mL): 530.67 RLU
- Transduction in Hela cells as measured by luciferase assay (RLU) (ALPL on HeLa cells; Anti-ALPL antibody 3.125 μg/mL): 527.33 RLU
- Transduction in Hela cells as measured by luciferase assay (RLU) (ALPL on HeLa cells; Anti-ALPL antibody 6.25 μg/mL): 451.67 RLU
- Transduction in Hela cells as measured by luciferase assay (RLU) (ALPL on HeLa cells; Anti-ALPL antibody 12.5 μg/mL): 417.33 RLU
- Transduction in Hela cells as measured by luciferase assay (RLU) (ALPL on HeLa cells; IgG isotype control 0 μg/mL): 433.33 RLU
- Transduction in Hela cells as measured by luciferase assay (RLU) (ALPL on HeLa cells; [6]): 457.67 RLU
- Transduction in Hela cells as measured by luciferase assay (RLU) (ALPL on HeLa cells; IgG isotype control 6.25 μg/mL): 516.33 RLU
- Transduction in Hela cells as measured by luciferase assay (RLU) (ALPL on HeLa cells; IgG isotype control 12.5 μg/mL): 551.33 RLU

B1: TTM-001: AAV9 capsid variant comprising SPHSKA (SEQ ID NO: 941) in loop IV (protein)
chain 1: MAADGYLPDWLEDNLSEGIREWWALKPGAPQPKANQQHQDNARGLVLPGYKYLGPGNGLDKGEPVNAADAAALEHDKAYDQQLKAGDNPYLKYNHADAEFQERLKEDTSFGGNLGRAVFQAKKRLLEPLGLVEEAAKTAPGKKRPVEQSPQEPDSSAGIGKSGAQPAKKRLNFGQTGDTESVPDPQPIGEPPAAPSGVGSLTMASGGGAPVADNNEGADGVGSSSGNWHCDSQWLGDRVITTSTRTWALPTYNNHLYKQISNSTSGGSSNDNAYFGYSTPWGYFDFNRFHCHFSPRDWQRLINNNWGFRPKRLNFKLFNIQVKEVTDNNGVKTIANNLTSTVQVFTDSDYQLPYVLGSAHEGCLPPFPADVFMIPQYGYLTLNDGSQAVGRSSFYCLEYFPSQMLRTGNNFQFSYEFENVPFHSSYAHSQSLDRLMNPLIDQYLYYLSKTINGSGSPHSKAQNQQTLKFSVAGPSNMAVQGRNYIPGPSYRQQRVSTTVTQNNNSEFAWPGASSWALNGRNSLMNPGPAMASHKEGEDRFFPLSGSLIFGKQGTGRDNVDADKVMITNEEEIKTTNPVATESYGQVATNHQSAQAQAQTGWVQNQGILPGMVWQDRDVYLQGPIWAKIPHTDGNFHPSPLMGGFGMKHPPPQILIKNTPVPADPPTAFNKDKLNSFITQYSTGQVSVEIEWELQKENSKRWNPEIQYTSNYYKSNNVEFAVNTEGVYSEPRPIGTRYLTRNL
chain 2: GSGSPHSKAQNQQT
- expression relative to AAV9 in the heart of marmosets [1]: a significant increase in expression relative to AAV9
- fold increase in expression relative to AAV9 in the brain of marmosets [1]: 703.3 fold
- Luciferase Activity (RLU) [2]: 7,456 RLU
- increase in transduction in cells expressing isoform 2 [2]: did not occur
- Fold enrichment over AAV9 in C57Bl/6 P2 (brain [3]): 14.48 fold
- Fold enrichment over AAV9 in the brain of Mice (BALB/c) (brain [4]): 41.304 fold
- Fold change in viral gene expression (2^-ΔΔCT) relative to pCMV6 transfected cells [5]: 1 fold

B2: TTM-002: AAV9 capsid variant comprising HDSPHK (SEQ ID NO: 2) in loop IV (protein)
chain 1: B1 chain 1 with S454H, G455D, S459K, K460S, A461G
chain 2: GHDSPHKSGQNQQT
- expression relative to AAV9 in the heart of marmosets [1]: a significant increase in expression relative to AAV9
- fold increase in expression relative to AAV9 in the brain of marmosets [1]: 366.6 fold
- Luciferase Activity (RLU) [2]: 3,465 RLU
- increase in transduction in cells expressing isoform 2 [2]: did not occur
- Fold enrichment over AAV9 in C57Bl/6 P2 (brain [3]): 27.15 fold
- Fold enrichment over AAV9 in the brain of Mice (BALB/c) (brain [4]): 49.760 fold
- Fold change in viral gene expression (2^-ΔΔCT) relative to pCMV6 transfected cells [5]: 1 fold
- Transduction in Hela cells as measured by luciferase assay (RLU) (ALPL on HeLa cells; Anti-ALPL antibody 0 μg/mL): 4701 RLU
- Transduction in Hela cells as measured by luciferase assay (RLU) (ALPL on HeLa cells; Anti-ALPL antibody 3.125 μg/mL): 5042.67 RLU
- Transduction in Hela cells as measured by luciferase assay (RLU) (ALPL on HeLa cells; Anti-ALPL antibody 6.25 μg/mL): 5220 RLU
- Transduction in Hela cells as measured by luciferase assay (RLU) (ALPL on HeLa cells; Anti-ALPL antibody 12.5 μg/mL): 5556.67 RLU
- transduction in the presence of anti-ALPL antibody vs isotype control (ALPL on HeLa cells; HeLa, 0-12.5 μg/mL antibody): decreased TTM-002 transduction in a dose dependent manner
- Transduction in Hela cells as measured by luciferase assay (RLU) (ALPL on HeLa cells; IgG isotype control 0 μg/mL): 4113.33 RLU
- Transduction in Hela cells as measured by luciferase assay (RLU) (ALPL on HeLa cells; [6]): 527.33 RLU
- Transduction in Hela cells as measured by luciferase assay (RLU) (ALPL on HeLa cells; IgG isotype control 6.25 μg/mL): 186.67 RLU
- Transduction in Hela cells as measured by luciferase assay (RLU) (ALPL on HeLa cells; IgG isotype control 12.5 μg/mL): 136 RLU
